Experimental data as given in US20250002586A1 (CDR LIFE, published 2025).
Changes are numbered by the printed parent chain.

How the values were obtained:
[1] = biological target: MAGE-A4 peptide … presented by HLA-A*02:01 on cells (human); test: cell-based or functional assay
[2] = biological target: T1, CD3 heterodimer (Acro Biosystems) (UniProt P07766 23-126); test: SPR (Biacore T200), CD3 heterodimer on HC30M chip; value given for the high affinity CD3 Fab
[3] = biological target: T1, CD3 heterodimer (Acro Biosystems); test: SPR (Biacore T200), CD3 heterodimer on HC30M chip; value given for the low affinity CD3 Fab
[4] = biological target: T1, CD3 heterodimer (Acro Biosystems); test: SPR (Biacore T200), CD3 heterodimer on HC30M chip; value given for the mid affinity CD3 Fab
[5] = biological target: T2, HLA-A*02:01 in complex with the MAGE-A4 peptide … (human); test: SPR, HLA-A*02:01/MAGE-A4 complex on streptavidin chip; measured in monovalent format
T2 construct: Recombinant complex as immobilised (500 RU) for SPR; also called HLA-A2/MAGE-A4 complex; pMHC-MAGE-A4 antigen
Description: Affinity characterization of HLA-A2/MAGE-A4×CD3 bispecific antibodies was performed by surface plasmon resonance (SPR). All experiments were conducted using a Biacore™ T200 Device (Cytiva). To determine the kinetic parameters of the binding of the bispecific antibodies to the HLA-A2/MAGE-A4 complex, a streptavidin chip (SAHC30M, XanTec) was coated according to the manufacturer's instructions with 500 RU HLA-A*02:01 in complex with the MAGE-A4 peptide. The resulting affinities presented herein correspond to the measurements performed with the respective monovalent antigen binding proteins. […] Uncoated channels were used for referencing. Data fitting was performed using a 1:1 Langmuir model.

T1 sequence (P07766 23-126, one chain of several): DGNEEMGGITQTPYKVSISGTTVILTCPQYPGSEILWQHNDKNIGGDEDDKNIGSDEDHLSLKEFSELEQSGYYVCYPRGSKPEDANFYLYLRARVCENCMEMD

B1: CDR-6 (bispecific antibody)
heavy: EVQLVESGGGSVQPGGSLRLSCAASGFTFSTYAMNWVRQAPGKGLEWVGRIRSKANNYATYYADSVKGRFTISRDDSKNTLYLQMNSLRAEDTATYYCVRHGNFGDSYVSWFAYWGQGTTVTVSSASTKGPSVFPLAPSSKSTSGGTAALGCLVKDYFPEPVTVSWNSGALTSGVHTFPAVLQSSGLYSLSSVVTVPSSSLGTQTYICNVNHKPSNTKVDKRVEPKSCGGGGSEVQLVESGGGLAQAGGSLRVSCVASGRPFTKYAWGWFRQAPGKAREFVATITWDGGKTDYADSVKGRFTISKDSAENSIYLQMNSLKPEDTAVYYCAADRNYCVGHRCYVRPDDYDYWGQGTQVTVSS
light: AVVTQEPSLTVSPGGTVTLTCGSSTGAVTTSNYANWVQQKPGKSPRGLIGGTNKRAPGVPARFSGSLLGGKAALTISGAQPEDEADYYCALWYSNHWVFGGGTKLTVLGTVAAPSVFIFPPSDEQLKSGTASVVCLLNNFYPREAKVQWKVDNALQSGNSQESVTEQDSKDSTYSLSSTLTLSKADYEKHKVYACEVTHQGLSSPVTKSFNRGECGGGGSEVQLVESGGGLAQAGGSLRVSCVASGRPFTKYAWGWFRQAPGKAREFVATITWDGGKTDYADSVKGRFTISKDSAENSIYLQMNSLKPEDTAVYYCAADRNYCVGHRCYVRPDDYDYWGQGTQVTVSS
For B1, which “U20S cell killing, IC50” value [1] is on record?
Its value is 0.02 nM.

B2: CDR-14 (bispecific antibody)
heavy: EVQLVESGGGLVQPGGSLRLSCAASGFTFSTYAMNWVRQAPGKGLEWVGRIRSKYNNYATYYADSVKGRFTISRDDSKNTLYLQMNSLRAEDTAVYYCVRHGNFGNSYVSWFAYWGQGTLVTVSSASTKGPSVFPLAPSSKSTSGGTAALGCLVKDYFPEPVTVSWNSGALTSGVHTFPAVLQSSGLYSLSSVVTVPSSSLGTQTYICNVNHKPSNTKVDKRVEPKSCGGGGSSYELTQPPSVSVSPGQTASITCTADTLSRSYASWYQQKPGQSPVLVIYRDTSRPSGIPERFSGSNSGNTATLTISGTQAMDEADYYCATSDGSGSNFQLFGGGTKLTVLGGGGGGSGGGGSGGGGSGGGGSESQVLESGGGSVQPGGSLRLSCTVSGFSLSNYAMSWVRQAPGKGLEYIGIVSSGGTTYYASWAKGRFTISKDTSKNTVYLQMNSLRAEDTASYYCAKDLYYGPTTYSAFNLWGQGTSVTVSS
light: QAVVTQEPSLTVSPGGTVTLTCRSSTGAVTTSNYANWVQQKPGQAPRGLIGGTNKRAPGVPARFSGSLLGGKAALTISGAQPEDEADYYCALWYSNHWVFGGGTKLTVLGTVAAPSVFIFPPSDEQLKSGTASVVCLLNNFYPREAKVQWKVDNALQSGNSQESVTEQDSKDSTYSLSSTLTLSKADYEKHKVYACEVTHQGLSSPVTKSFNRGECGGGGSSYELTQPPSVSVSPGQTASITCTADTLSRSYASWYQQKPGQSPVLVIYRDTSRPSGIPERFSGSNSGNTATLTISGTQAMDEADYYCATSDGSGSNFQLFGGGTKLTVLGGGGGGSGGGGSGGGGSGGGGSESQVLESGGGSVQPGGSLRLSCTVSGFSLSNYAMSWVRQAPGKGLEYIGIVSSGGTTYYASWAKGRFTISKDTSKNTVYLQMNSLRAEDTASYYCAKDLYYGPTTYSAFNLWGQGTSVTVSS
notes: no Fc
Which Kd [2] does the source give for B2 here?
Its Kd is 1.2 nM.

B3: CDR-12 (bispecific antibody)
heavy: B2 heavy with Y55A, N106D
light: B2 light with R23G, Q44K, A45S
notes: no Fc
Which Kd [3] does the source give for B3 here?
Its Kd is 54 nM.

B4: CDR-13 (bispecific antibody)
heavy: B2 heavy with N106D
light: B2 light with R23G, Q44K, A45S
notes: no Fc
With B4 as the binder, how does the Kd [4] read?
The Kd was 11 nM.

B5: CDR-15 (bispecific antibody)
heavy: B2 heavy with N106D, Y470Q
light: QAVVTQEPSLTVSPGGTVTLTCGSSTGAVTTSNYANWVQQKPGKSPRGLIGGTNKRAPGVPARFSGSLLGGKAALTISGAQPEDEADYYCALWYSNHWVFGGGTKLTVLGQPKAAPSVTLFPPSSEELQANKATLVCLISDFYPGAVTVAWKADSSPVKAGVETTTPSKQSNNKYAASSYLSLTPEQWKSHRSYSCQVTHEGSTVEKTVAPTECSGGGGSSYELTQPPSVSVSPGQTASITCTADTLSRSYASWYQQKPGQSPVLVIYRDTSRPSGIPERFSGSNSGNTATLTISGTQAMDEADYYCATSDGSGSNFQLFGGGTKLTVLGGGGGGSGGGGSGGGGSGGGGSESQVLESGGGSVQPGGSLRLSCTVSGFSLSNYAMSWVRQAPGKGLEYIGIVSSGGTTYYASWAKGRFTISKDTSKNTVYLQMNSLRAEDTASYYCAKDLYYGPTTQSAFNLWGQGTSVTVSS
Which Kd [5] does the source give for B5 here?
The Kd was 41 nM.

B6: CDR-8 (bispecific antibody)
heavy: B2 heavy with N106D, S323R, D324P, G325S
light: B5 light with S310R, D311P, G312S, Q457Y
notes: no Fc; also called dual pMHC TCE; dual pMHC-targeting T cell engager in Fab-(scFv)2 format
How did the Kd [5] turn out when B6 was run?
The Kd was 0.1 nM.
